Molecular target: the molecule itself
Assay: 1D 1H NMR spectra at increasing protein concentration

B1: human FBxo3 ApaG domain, residues 278–407 (domain or fragment, UniProt Q9UK99 278-407, looked up)
chain: VATTGDITVSVSTSFLPELSSVHPPHYFFTYRIRIEMSKDALPEKACQLDSRYWRITNAKGDVEEVQGPGVVGEFPIISPGRVYEYTSCTTFSTTSGYMEGYYTFHFLYFKDKIFNVAIPRFHMACPTFR
  binding result: binds

Reference: publication PMC5065005 (The FEBS journal, 2016)
